Measured values published in patent publication US20240218057A1 (ROCKEFELLER UNIVERSITY, published 2024).
Positions count from the first letter of the chain named.

B1: C1048 (antibody, V domains shown)
VH: EVQLVQSGAEVKKPGESLKISCKVSGYSFISHWIGWVRQMPGKGLEWMGIIYPGDSDTRYSPSFQGQVTISADKSISTAYLQWSSLKASDTAMYYCARRGASWELDYWGQGTLVTV
VL: QSVLTQPPSASGTPGQRVTISCSGSSSNIGSNPVSWYQQLPGPAPQLLIYGNDQRPSGVPDRFSGSKSGTSASLAISGLQSEDEADYYCAAWDDSLNGYVFGTGTKVTVL
B2: C1049 (antibody, V domains shown)
VH: EVQLVQSGAEVKKPGESLKISCKSSGYSFISHWIGWVRQMPGKGLEWMGIIWPGDSDTRYSPSFQGQVTISVDKSITTVYLQWSSLKAADTAMYYCARRGSSWEVDYWGQGTLVTVSS
VL: not shown
B3: C1050 (antibody, V domains shown)
VH: EVQLVESGGGLVQPGRSLRLSCAASGFTFDDYGMHWVRQAPGKGLEWVSGISWNGDSIGYADSVKGRFTISRDNAKTSLYLQMNRLRAEDTALYYCAKAASRSTRIGGAFDIWGQGTMVTVSS
VL: QSALTQPASVSGSPGQSITISCTGTSSDVGGYNLVSWYQQHPGKAPKLMIYEGSKRPSGVSNRFSGSKSGNTASLTISGLQAEDEADYYCCSYAYSFTNVFGTGTKVTV
B4: C1051 (antibody, V domains shown)
VH: B3 VH with A23V, M34L, G55S, T69A, K76R
VL: B3 VL with H41Y, G53D, N62H, Y95F
B5: C1052 (antibody, V domains shown)
VH: QVQLVQSGAEVKKPGASVKVSCKVSGYTLSELSMHWVRQAPGEGLEWLGGFDPEDGETINAQKFQGRVTMTEDRSTDTAYMELSSLRSEDTAVYYCATRGRYCSSGNCYYHHWGQGTLVTVSS
VL: DIQMTQSPSTLSASVGDRVIITCRASQNIHNWLAWYQQKPGKAPKLLIYKASSLESGVPSRFSGSGSGTEFTLTISSLQPDDFATYFCQQYHSYSWTFGQGTKVEIK
B6: C1053 (antibody, V domains shown)
VH: EVQLLESGGGLVQPGGSLRLSCAASGFTFSSYAMNWVRQAPGKGLEWVSAISGSGGGTYYADSVKGRFTISRDNSKNTLYLQMDSLRAEDTAVYYCAKDVPIEQQLVPTFDYWGQGALVTVSS
VL: DIQMTQSPSSLSASVGDRVTITCRASQSISRYLNWYQQKPGKAPKLLIYGASSLQSGVPSRFSGSGSGTDFTLTISSLQPEDFATYWCQQSYSTLSITFGQGTRLEIK
B7: C1054 (antibody, V domains shown)
VH: EVQLLESGGGLVQPGGSLRLSCVVSGFTFSSYAMNWVRQAPGKGLEWVSVIGGSGDGRYYADSVKGRFTISRDNSKNTLYLQMNSLRGDDTAVYYCARDVPVEQQLVPTFDYWGQGTLVTVSS
VL: B6 VL with G50A, D70E, W87Y
B8: C1055 (antibody, V domains shown)
VH: QVQLVESGGGVVQPGRSLRLSCAASGFTFSTYGMNWVRQAPGKGLEWVALILYDGSDKYYADSVKSRFTISRDNSRNTLYLQMTSLRAEDTAVYYCAKALSSTYYYDASGPDAFDIWGQGTMVTVSS
VL: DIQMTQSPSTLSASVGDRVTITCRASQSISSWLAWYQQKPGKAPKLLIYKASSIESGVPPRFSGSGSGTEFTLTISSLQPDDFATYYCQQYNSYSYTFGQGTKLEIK
B9: C1057 (antibody, V domains shown)
VH: QVQLVQSGAEVKKPGSSVKVSCKASGGTFTTYIISWVRQAPGQGLEWMGGISPMLGTANYAQKFQGGVTITADESTTTAYMEMSGLRSEDTAVYYCARAHMYCSDGSCYRQSGYFDSWGQGTLVTVSS
VL: QSALTQPRSVSGSPGQSVTITCTGTSSNVGGYKYVSWFQQHPGKAPKFLIYDVSERSSGVPDRFSGSKSGNTASLTISGLQAEDEADYYCCSYAGKYTVVFGGGTRLTV
B10: C1058 (antibody, V domains shown)
VH: EVQLVESGGGLVQPGGSLRLSCAASGIIVSSNYMNWVRQVPGKGLEWVSVLYSGGSTFYADSVRGRFTISRDNSKNTLFLQMNSLRPEDTAVYYCARDFREGAFDIWGQGTMVTV
VL: DIQLTQSPSFLSASVGDRVTITCRASQGISSYLAWYQQKPGKAPNLLIYAASTLQSGVPSRFSGSGSGTDFTLTISSLQPEDFATYYCQQLNSYSPLFGQGTRLEIK
B11: C1059 (antibody, V domains shown)
VH: EVQLVESGGGLVQPGGSLRLSCAASGVTVSYNYMHWVRQAPGKGLEWVSVFFPGGSIFYADSVKGRFSISRDNSHNTLYLQMNNLRPEDTAVYYCARDFREGAIDLWGQGTMVTVSS
VL: B10 VL with G16E, N45K, A50G, D70E, F83S, S95P
B12: C1060 (antibody, V domains shown)
VH: EVQLVESGGDLVQPGGSLRLSCAASEIIVSRNYMNWVRQAPGKGLEWVSIIYSGGSTFYGDSVKGRFTISRDSSKNTLYLQMHGLRVEDTAIYYCARSYGDYYIDYWGQGTLVTVSS
VL: DIQMTQSPSSVSASVGDRVTITCRTSQSISTSLAWYQQKPGKAPKLLIYAASSLQRGVPSRFSGTGSGTDFTLTISSLQPEDFATYYCQQSSSSPPLFTFGPGTKVDIK
B13: C1061 (antibody, V domains shown)
VH: EVQLVESGGGLVQPGGSLRLSCAASGFTFSRYDMHWVRQGTGKGLEWVSAIGTSGDTYYPDSVKGRFTISRENAKNSLYLQMNSLRAGDTAVYYCARGGLQTTTWLFDYWGQGTLVTVSS
VL: B6 VL with G50A, S67A, T85I, W87Y, T94N, L95P, S96P
B14: C1062 (antibody, V domains shown)
VH: B13 VH with R31N, G40T, S54A, D61G, I69M, Y109N
VL: B6 VL with S28T, G50A, W87Y, S93T, T94M, L95P, S96P
B15: C1063 (antibody, V domains shown)
VH: EVQLVQSGAEVKKPGESLKISCKGYGNSFNNYWIAWVRQMPVKGLEWMGVINPGDSDTRYSPSFQGQVTISVDKSISTAYLQWSSLKASDTAMYYCARTWSPAAVAFFDSWGQGTLVTVS
VL: NFMLTQPHSVSESPGKTVTISCTRSSDSIGSNYVQWYQQRPGSSPTIVIYEDSQRPSGVPHRFSGSFDSSSNSASLTISGLKTEDEADYYCQSWDSGNLVFGGGTKLTVL
B16: C1065 (antibody, V domains shown)
VH: EVQLVESGGGLIQPGGSLRLSCAASGFTVSRNYMSWVRQAPGKGLEWVSVIYSGGSTFYADSVKGRFTISRDNSKNTLYLQMNSLRAEDTAVYYCARGLPTGEGWNYFDYWGQGTLVTVSS
VL: QSALTQPASVSGSPGQSITISCTGTSSDIGGYHYVSWYQQHPGKAPKLMIYDVSNRPSGISNRFSGSKSGNTASLTISGLQAEDEADYYCSSYASSSVIFGGGTKLTVL
B17: C1066 (antibody, V domains shown)
VH: EVQLVESGGGLVQPGRSLRLSCAASGFMFDDYAMHWVRQAPGKGLEWVSGINWSSADIGYVDSVKGRFTISRDNAKNSLYLQMNSLRTEDTAFYYCAKGWFGELLGGSDSWGQGTLVTVSS
VL: QLVLTQSSSASASLGSSVKLTCTLNSGHSSYIIAWHQQQPGKAPRYLMKLEGSGSYNKGSGVPDRFSGSSSGADRYLTISNLQFEDEADYYCATWDSNTQVFGGGTKLTVL
B18: C1067 (antibody, V domains shown)
VH: QVQLVQSGAEVKKPGASVKVSCKASRDTFTTHYIHWVRQAPGQGLEWMGIINPSGGSISYAQKFQGRVTMTRDTSTSTVYMELSSLRSEDTAVYYCARGGIVPHLSNWFDPWGQGTLVTVSS
VL: EIVLTQSPGTLSLSPGERATLSCRASQSVSSSYLAWYQQKPGQAPRLLIYGASSRATGIPDRFTGSGSGTDFTLTISRLEPEDFAVYYCQQYGRSSGFTFGPGTKVDIK

target: T1, SARS-COV-2 RBD (SARS-COV-2, UniProt P0DTC2 319-539); assay: ELISA, RBD coated on plate
T1 construct: also called WT RBD

Q: With B1 as the binder, how does the EC50 read?
A: The EC50 was 2.41 ng/mL.

Q: Which EC50 does the source give for B2 here?
A: The EC50 was 2.81 ng/mL.

Q: With B3 as the binder, how does the EC50 read?
A: Its EC50 is 2.78 ng/mL.

Q: B4 was tested. Which EC50 did it give?
A: The EC50 was 1.4 ng/mL.

Q: Which EC50 does the source give for B5 here?
A: The EC50 was 2.64 ng/mL.

Q: How did the EC50 turn out when B6 was run?
A: The EC50 was 4.13 ng/mL.

Q: For B7, which EC50 is on record?
A: Its EC50 is 1.64 ng/mL.

Q: With B8 as the binder, how does the EC50 read?
A: The EC50 was 2.71 ng/mL.

Q: For B9, which EC50 is on record?
A: The EC50 was 2.12 ng/mL.

Q: Which EC50 does the source give for B10 here?
A: The EC50 was 2.13 ng/mL.

Q: B11 was tested. Which EC50 did it give?
A: Its EC50 is 1.69 ng/mL.

Q: For B12, which EC50 is on record?
A: The EC50 was 2.67 ng/mL.

Q: B13 was tested. Which EC50 did it give?
A: The EC50 was 2.26 ng/mL.

Q: Which EC50 does the source give for B14 here?
A: The EC50 was 2.61 ng/mL.

Q: Which EC50 does the source give for B15 here?
A: Its EC50 is 3.04 ng/mL.

Q: With B16 as the binder, how does the EC50 read?
A: Its EC50 is 3.52 ng/mL.

Q: With B17 as the binder, how does the EC50 read?
A: The EC50 was 3.01 ng/mL.

Q: For B18, which EC50 is on record?
A: Its EC50 is 2.93 ng/mL.
